Source: patent US20250163140A1

Target: Recombinant Human FGF-23 (R&D Systems, Cat No. 2604-FG-025/CF) (human) (UniProt Q9GZV9)
Experiment: cell-based or functional assay

Recombinant Human FGF-23 (R&D Systems, Cat No. 2604-FG-025/CF) (human), sequence (Q9GZV9 25-251 limits assumed): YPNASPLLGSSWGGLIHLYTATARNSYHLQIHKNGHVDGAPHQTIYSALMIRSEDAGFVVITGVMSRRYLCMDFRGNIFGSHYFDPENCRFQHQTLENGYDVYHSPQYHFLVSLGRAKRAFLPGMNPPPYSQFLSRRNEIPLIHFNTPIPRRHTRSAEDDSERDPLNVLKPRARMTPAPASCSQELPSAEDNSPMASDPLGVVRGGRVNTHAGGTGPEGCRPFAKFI

FGF23 neutralizing activity IC50 (luciferase promoter assay)	Binder
4.4 ng/mL	antibody I100Y_G2_LS (antibody) heavy: QVQLVQSGAEVKKPGASVKVSCKASGYTFTNHYMHWVRQAPGQGLEWMGIINPISGSTSNAQKFQGRVTMTRDTSTSTVYMELSSLRSEDTAVYYCARDYVDAFDFWGQGTMVTVSSASTKGPSVFPLAPCSRSTSESTAALGCLVKDYFPEPVTVSWNSGALTSGVHTFPAVLQSSGLYSLSSVVTVPSSNFGTQTYTCNVDHKPSNTKVDKTVERKCCVECPPCPAPPVAGPSVFLFPPKPKDTLMISRTPEVTCVVVDVSHEDPEVQFNWYVDGVEVHNAKTKPREEQFNSTFRVVSVLTVVHQDWLNGKEYKCKVSNKGLPAPIEKTISKTKGQPREPQVYTLPPSREEMTKNQVSLTCLVKGFYPSDIAVEWESNGQPENNYKTTPPMLDSDGSFFLYSKLTVDKSRWQQGNVFSCSVLHEALHSHYTQKSLSLSPGK light: AIQLTQSPSSLSASVGDRVTITCRASQGISSALVWYQQKPGKAPKLLIYDASSLESGVPSRFSGSGSGTDFTLTISSLQPEDFATYYCQQFNDYFTFGPGTKVDIK
2.9 ng/mL	antibody I100Y_IgG4PE_R409K_LS (antibody) heavy: QVQLVQSGAEVKKPGASVKVSCKASGYTFTNHYMHWVRQAPGQGLEWMGIINPISGSTSNAQKFQGRVTMTRDTSTSTVYMELSSLRSEDTAVYYCARDYVDAFDFWGQGTMVTVSSASTKGPSVFPLAPCSRSTSESTAALGCLVKDYFPEPVTVSWNSGALTSGVHTFPAVLQSSGLYSLSSVVTVPSSSLGTKTYTCNVDHKPSNTKVDKRVESKYGPPCPPCPAPEFEGGPSVFLFPPKPKDTLMISRTPEVTCVVVDVSQEDPEVQFNWYVDGVEVHNAKTKPREEQFNSTYRVVSVLTVLHQDWLNGKEYKCKVSNKGLPSSIEKTISKAKGQPREPQVYTLPPSQEEMTKNQVSLTCLVKGFYPSDIAVEWESNGQPENNYKTTPPVLDSDGSFFLYSKLTVDKSRWQEGNVFSCSVLHEALHSHYTQKSLSLSLGK light: AIQLTQSPSSLSASVGDRVTITCRASQGISSALVWYQQKPGKAPKLLIYDASSLESGVPSRFSGSGSGTDFTLTISSLQPEDFATYYCQQFNDYFTFGPGTKVDIK
